Article PMC12724168, “Real-time simultaneous monitoring of multiple analytes in bacterial cultures” (Applied and Environmental Microbiology, 2025)

B1: LAOBP-22C Acrylodan (conjugate, UniProt P02911 23-260, looked up, variant A22C)
Lysine/arginine/ornithine-bind …: ALPQTVRIGTDTTYAPFSSKDCKGEFIGFDIDLGNEMCKRMQVKCTWVASDFDALIPSLKAKKIDAIISSLSITDKRQQEIAFSDKLYAADSRLIAAKGSPIQPTLESLKGKHVGVLQGSTQEAYANDNWRTKGVDVVAYANQDLIYSDLTAGRLDAALQDEVAASEGFLKQPAGKEYAFAGPSVKDKKYFGDGTGVGLRKDDTELKAAFDKALTELRQDGTYDKMAKKYFDFNVYGD
modifications: Acrylodan label
B2: LAOBP-22C TMR (conjugate, UniProt P02911 23-260, looked up, variant A22C)
Lysine/arginine/ornithine-bind …: ALPQTVRIGTDTTYAPFSSKDCKGEFIGFDIDLGNEMCKRMQVKCTWVASDFDALIPSLKAKKIDAIISSLSITDKRQQEIAFSDKLYAADSRLIAAKGSPIQPTLESLKGKHVGVLQGSTQEAYANDNWRTKGVDVVAYANQDLIYSDLTAGRLDAALQDEVAASEGFLKQPAGKEYAFAGPSVKDKKYFGDGTGVGLRKDDTELKAAFDKALTELRQDGTYDKMAKKYFDFNVYGD
modifications: TMR label
B3: LAOBP-22C IANBD (conjugate, UniProt P02911 23-260, looked up, variant A22C)
Lysine/arginine/ornithine-bind …: ALPQTVRIGTDTTYAPFSSKDCKGEFIGFDIDLGNEMCKRMQVKCTWVASDFDALIPSLKAKKIDAIISSLSITDKRQQEIAFSDKLYAADSRLIAAKGSPIQPTLESLKGKHVGVLQGSTQEAYANDNWRTKGVDVVAYANQDLIYSDLTAGRLDAALQDEVAASEGFLKQPAGKEYAFAGPSVKDKKYFGDGTGVGLRKDDTELKAAFDKALTELRQDGTYDKMAKKYFDFNVYGD
modifications: IANBD label
B4: LAOBP-22C Alexa488 (conjugate, UniProt P02911 23-260, looked up, variant A22C)
Lysine/arginine/ornithine-bind …: ALPQTVRIGTDTTYAPFSSKDCKGEFIGFDIDLGNEMCKRMQVKCTWVASDFDALIPSLKAKKIDAIISSLSITDKRQQEIAFSDKLYAADSRLIAAKGSPIQPTLESLKGKHVGVLQGSTQEAYANDNWRTKGVDVVAYANQDLIYSDLTAGRLDAALQDEVAASEGFLKQPAGKEYAFAGPSVKDKKYFGDGTGVGLRKDDTELKAAFDKALTELRQDGTYDKMAKKYFDFNVYGD
modifications: Alexa488 label
B5: LAOBP-22C Texas Red (conjugate, UniProt P02911 23-260, looked up, variant A22C)
Lysine/arginine/ornithine-bind …: ALPQTVRIGTDTTYAPFSSKDCKGEFIGFDIDLGNEMCKRMQVKCTWVASDFDALIPSLKAKKIDAIISSLSITDKRQQEIAFSDKLYAADSRLIAAKGSPIQPTLESLKGKHVGVLQGSTQEAYANDNWRTKGVDVVAYANQDLIYSDLTAGRLDAALQDEVAASEGFLKQPAGKEYAFAGPSVKDKKYFGDGTGVGLRKDDTELKAAFDKALTELRQDGTYDKMAKKYFDFNVYGD
modifications: Texas Red label

Columns and labels:
[1] = Fluorescence change of LAOBP-22C fluorophore conjugates upon addition of ligand; format: binding; settings: LAOBP-22C mutant conjugates, ligand not given
From the text: (§1) Because of this, we decided to design and develop a biosensor for arginine, using the lysine/arginine/ornithine binding protein from Salmonella (LAOBP) ([52]). We carried out cysteine scanning by introducing four individual cysteine mutations at positions near the hinge region. The selection of cysteine positions was guided by the crystal structures of the apo and bound forms of the protein ([53]) (Fig. S1). Each of the four mutants was conjugated to six different fluorophores, and the fluorescence change upon the addition of ligand was characterized for each of the 24 protein-ligand conjugates. […] We determined the dissociation constants for all three ligands (arginine, lysine, and ornithine) using the LAOBP-22C acrylodan conjugate (Fig. 1F) and the coumarin conjugate (Fig. S2). With a large change in fluorescence and a dissociation constant of 1.5 µM for both arginine and lysine, we chose to use the LAOBP-22C acrylodan conjugate for subsequent experiments.
Fluorescence analysis of protein-fluorophore conjugates was carried out on a Jasco FP-8500 fluorometer. UV-clear, four-sided cuvettes containing 200–300 nM labeled protein in working buffer were used. The following parameters were used for each of the fluorophores: Acrylodan (excitation: 359 nm, emission: 440–550 nm), Coumarin (excitation: 390 nm, emission: 430–520 nm), IANBD (excitation: 460 nm, emission: 500–600 nm), Alexa488 (excitation: 490 nm, emission: 500–560 nm), TMR (excitation: 555 nm, emission: 570–620 nm), and Texas Red (excitation: 595 nm, emission: 600–660 nm). Titrations were carried out by adding increasing amounts of ligand while monitoring changes in emission at the maximum wavelength. Fluorescence values were volume adjusted, and Kd values were determined by fitting the titration data using Kaleidagraph according to the following equation: […]

[2] = Fluorescence titration of LAOBP-22C conjugates with arginine; format: binding; settings: LAOBP-22C conjugate, ligand arginine
From the text: as §1
(§2) Fluorescence analysis of protein-fluorophore conjugates was carried out on a Jasco FP-8500 fluorometer. […] Fluorescence values were volume adjusted, and Kd values were determined by fitting the titration data using Kaleidagraph according to the following equation: […]
(§3) where F is the observed fluorescence at a given ligand concentration [L], Fo is the fluorescence in the absence of ligand, and Fmax is the fluorescence at saturation.

[3] = Fluorescence titration of LAOBP-22C conjugates with lysine; format: binding; settings: LAOBP-22C conjugate, ligand lysine
From the text: as §1, §2, §3

[4] = Fluorescence titration of LAOBP-22C conjugates with ornithine; format: binding; settings: LAOBP-22C conjugate, ligand ornithine
From the text: as §1, §2, §3

[5] = tested on: cultures of P. aeruginosa, S. aureus, E.coli, E. faecalis, and C. striatum; assay: Gel electrophoresis of biosensors after 24 h in bacterial cultures (stability); settings: 24 hours in culture, LB, supernatants
Protocol: To determine if the observed changes in fluorescence were not simply the result of degradation of the protein sensors over the course of E. coli growth, glucose, individual ligands (arabinose, ribose, glutamate, arginine, or ornithine) were added to 24-hour-old cultures containing each corresponding PBP. Immediately after the addition of the respective analyte, fluorescence was measured again (Fig. 3F).
Figure S3: Gel electrophoresis analysis of the stability of the biosensors after incubation with different bacterial species in culture for 24 hours. Left gel: TnGBP, Right gel: LAOBP. A Bio-Rad gel imager was used to detect the fluorescently labeled biosensor in each sample. In each gel, the lanes are as follows: 1. MW standard, 2. Pure protein, 3. Pure protein in LB with no bacteria, 4 – 8: supernatants after 24 hours of cultures of P. aeruginosa, S. aureus-GBP, E.coli, E. faecalis, and C. striatum.

Molecule | % Change [1] | Kd [2] | Kd [3] | Kd [4] | stability of the biosensor in bacterial culture (gel electrophoresis) [5]
B1 | −50% | 1.5 ± 0.1 µM | 1.5 ± 0.1 µM | 38.9 ± 1.8 µM | two bands are visible
B2 | −10% | – | – | – | –
B3 | -8% | – | – | – | –
B4 | +8% | – | – | – | –
B5 | −22% | – | – | – | –
